Results on four molecules are retold here after US20260209346A1 (LTZ THERAPEUTICS, published 2026).

The target in experiment [1] is CD79b endogenously expressed on the cell surface (malignant B cell lines, normal B cells in PBMC, CLL patients' B lymphocytes) (human) (UniProt P40259). Briefly: flow cytometry quadrant plot, untransfected NALM6 cells; Anti-CD79b-PE against Anti-IgM-APC. Background: In flow cytometry, cells or beads pass a laser one at a time.
The target is the same in experiment [2]. Nature of the experiment: flow cytometry on BJAB cells; anti-human IgG1-PE; MFI (PE); table under the graph; fit of a flat control curve.
Experiment [3] shares this target. Briefly: flow cytometry on Ramos cells; anti-human IgG1-PE; MFI (PE); table under the graph; fit of a flat control curve.
Experiment [4] shares this target. Briefly: flow cytometry on Nalm-6 cells; anti-human IgG1-PE; MFI (PE); table under the graph; fit of a flat control curve.
Experiment [5] shares this target. Nature of the experiment: flow cytometry on SU-DHL-4 cells; anti-human IgG1-PE; MFI (PE); table under the graph; fit of a flat control curve.
The target is the same in experiment [6]. Nature of the experiment: flow cytometry on PBMC of Donor 2890, B cells marked with CD19-BV421; anti-human IgG1-PE; MFI (PE); table under the graph; fit of a flat control curve.
For experiment [7], the target named is T1, human CD79b recombinant protein (human, UniProt P40259 29-159).
T1 construct: also called human CD79b ECD antigen; recombinant human CD79b ECD
T1 sequence: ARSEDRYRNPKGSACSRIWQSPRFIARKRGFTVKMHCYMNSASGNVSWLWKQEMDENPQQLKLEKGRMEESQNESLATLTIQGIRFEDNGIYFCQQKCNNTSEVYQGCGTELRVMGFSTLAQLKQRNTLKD
Briefly: ELISA, coated human CD79b recombinant protein. Here is the method: (§1) Binding affinities of anti-CD79b antibodies to human and cynomolgus CD79b recombinant proteins were tested by ELISA. 1 ug/ml (in PBS buffer) of human or cynomolgus CD79b recombinant proteins were coated on an ELISA plate overnight. ELISA plates were washed and blocked with blocking buffer (PBS+1% BSA) followed by incubation with serially diluted anti-CD79b primary antibodies. Anti-CD79b antibody binding was quantified using an anti-human IgG HRP secondary antibody (Biolegend Catalog #410902) and HRP substrate.

In experiment [8] the target is T2, cynomolgus CD79b recombinant protein (cynomolgus).
T2 chain: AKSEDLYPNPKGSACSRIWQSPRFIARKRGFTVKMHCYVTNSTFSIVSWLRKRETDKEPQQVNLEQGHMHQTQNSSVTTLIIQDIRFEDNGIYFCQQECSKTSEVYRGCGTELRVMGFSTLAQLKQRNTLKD
Briefly: ELISA, coated cynomolgus CD79b recombinant protein. Here is the method: as §1
On the technique in general: An ELISA detects its analyte on a solid surface through an enzyme-linked reagent.

For experiment [9], the target named is T1, human CD79b recombinant protein. Briefly: ELISA on recombinant human CD79b ECD; A 450nm.
Experiment [10] shares this target. Briefly: BLI, antibody captured on anti-human IgG Fc probes, human CD79b in solution, 1:1 model. Here is the method: (§2) Binding affinities of anti-CD79b antibodies to human CD79b recombinant proteins were tested by BLI. 10 ug/ml of anti-CD79b antibodies were captured by anti-human IgG Fc probes (Gator Bio Catalog #160024). […] Absolute kD was determined by applying a 1:1 binding model (Global Rmax unlinked).
On the technique in general: Biolayer interferometry detects binding as a change in optical thickness at a sensor tip.

Experiment [11] addresses T3, CD79b endogenously expressed on the cell surface (malignant B cell lines, normal B cells in PBMC, CLL … (human, UniProt P40259 29-229)).
T3 construct: whole, on cells; On cells CD79b stands in the B-cell receptor complex with CD79a and surface Ig; also called cell surface CD79b; endogenous CD79b
T3 sequence (looked up): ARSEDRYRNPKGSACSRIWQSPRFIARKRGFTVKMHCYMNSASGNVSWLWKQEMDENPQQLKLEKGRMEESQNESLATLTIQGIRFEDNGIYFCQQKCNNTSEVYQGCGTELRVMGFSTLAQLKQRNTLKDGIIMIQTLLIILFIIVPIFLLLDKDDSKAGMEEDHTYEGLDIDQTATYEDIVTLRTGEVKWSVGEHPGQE
Briefly: flow cytometry on BJAB cells; anti-human IgG1-PE; MFI (PE); table under the graph. Here is the method: (§3) The binding affinities of anti-CD79b antibodies to malignant B cell lines were tested. […] The cells were then incubated with 100 μl anti-human IgG1-PE (Invitrogen, cat: 12-4998-82), 1:1000 dilution, for 30 min on ice, washed with 200 ul PBS for three times before flow cytometry analysis.

Experiment [12] concerns the target T3, CD79b endogenously expressed on the …. Nature of the experiment: flow cytometry on Ramos cells; anti-human IgG1-PE; MFI (PE); table under the graph. Here is the method:
as §3

Experiment [13] shares this target. Nature of the experiment: flow cytometry on Daudi cells; anti-human IgG1-PE; MFI (PE); table under the graph. Here is the method:
as §3

Experiment [14] has the same target. Nature of the experiment: flow cytometry on Nalm-6 cells; anti-human IgG1-PE; MFI (PE); table under the graph. Here is the method: as §3
The target is the same in experiment [15]. Nature of the experiment: flow cytometry on SU-DHL-4 cells; anti-human IgG1-PE; MFI (PE); table under the graph. Here is the method:
as §3

For experiment [16] the target is unchanged. Nature of the experiment: flow cytometry on PBMC of CLL Donor 0255 (B lymphocytes); PE goat anti-human IgG Fc; MFI PE. Here is the method:
To determine the binding affinities of the anti-CD79b antibodies to cell surface CD79b on Chronic Lymphocytic Leukemia (CLL) patient's B lymphocytes, a cell-based binding assay was conducted. […] CLL patient PBMCs were purchased from the company Bioscience. […] Specifically, 2.5×10⁴ PBMC cells in 50 μl FACS buffer (1×PBS+2% BSA+2 mM EDTA) were seeded in each well of a V bottom 96-well plate. […] The mixture was incubated on ice for 30 minutes, and then washed twice with FACS buffer. The cells were re-suspended in 100 μl FACS buffer containing PE conjugated goat anti-human IgG Fc (1:1000) and anti-human CD19 (BV421), and incubated for 30 minutes on ice in darkness. After washing twice with FACS buffer, the cells were re-suspended in 100 μl of FACS buffer and analyzed with a Cytek cytometer.

For experiment [17] the target is unchanged. Briefly: flow cytometry on a cell line expressing endogenous CD79b (not named on the sheet or in the text); MFI (PE).
For experiment [18] the target is unchanged. Briefly: flow cytometry on PBMC of Donor 889, B cells marked with CD19-BV421; anti-human IgG1-PE; MFI (PE); table under the graph. Here is the method: (§4) The binding affinities of anti-CD79b antibodies to endogenous B cells were tested. […] The cells were then incubated with […] mixture of anti-human IgG1-PE (Invitrogen, Cat #: 12-4998-82), 1:1000 dilution; CD19-BV421 (Biolegend, Cat #:302230, 1:400 dilution) for 30 min on ice, and washed with 200 ul PBS for three times before flow cytometry analysis.

Experiment [19] shares this target. Briefly: flow cytometry on PBMC of Donor 356, B cells marked with CD19-BV421; anti-human IgG1-PE; MFI (PE); table under the graph. Here is the method:
as §4

For experiment [20] the target is unchanged. Briefly: flow cytometry on PBMC of Donor 2890, B cells marked with CD19-BV421; anti-human IgG1-PE; MFI (PE); table under the graph. Here is the method: as §4
For experiment [21] the target is unchanged. Briefly: flow cytometry on PBMC of Donor 2235, B cells marked with CD19-BV421; anti-human IgG1-PE; MFI (PE); table under the graph. Here is the method: as §4
The target in experiment [22] is T1, human CD79b recombinant protein. Briefly: BLI; antibody at 10 ug/ml captured on anti-human IgG Fc probes, hCD79b in solution; same value printed in the rows for 18.3 and 9.14 nM hCD79b. Here is the method:
as §2

Experiment [23] has the same target. Briefly: BLI; antibody at 10 ug/ml captured on anti-human IgG Fc probes, hCD79b in solution; row for 9.14 nM hCD79b.

On to Isotype (antibody), for which the Q3 (percent of cells Anti-CD79b-PE positive, Anti-IgM-APC negative) in experiment [1] was found to be 1.16.

Broadly, the EC50 is the concentration giving half of the maximal effect. Read a low EC50 as higher potency in that assay. As to IgG1 control (antibody), the concentration for a half-maximal effect (EC50) in experiment [2] was found to be 40 pM; in [3] it was 10 pM; in experiment [4], 8170 pM; in experiment [5], 170 pM; in experiment [6] it was 163 pM.

B1: ch23D8 (antibody, human IgG1, kappa, V domains shown)
VH: QSLEESGGGLVTPGGTLTLTCTVSGLSLSSNAINWVRQAPGKGLEWIGMIYSGGRIEYASWAKGRFTISKTSTTVDLKITSPTTEDTATYFCAKGMSPSAHSSDIWGPGTLVTVSA
VL: AYDMTQTPASVEVAVGGTVTIKCQASQSISDNLSWYQQKPGQPPKLLIYDASDLASGVPSRFSGSGSGTEFTLTISDLEPADAATYYCQQDWISSNVDNTFGGGTEVVVKR
notes: Rabbit/human chimeric IgG1 kappa; also called chimeric 23D8
Broadly, the IC50 is the point on the concentration scale where inhibition reaches its midpoint. A word on the EC50 (read off the curve): it is the concentration giving half of the maximal effect. For orientation: Kd means a measure of binding affinity in units of concentration. Usually koff stands for the rate constant with which the complex falls apart. The term kon denotes a measure of how fast the partners come together. As to B1, the values for the IC50 in experiment [7] and in experiment [8] were 330 pM and 570 pM, respectively. Further, the figures for the concentration for a half-maximal effect (EC50 (read off the curve)) in experiment [9], in [16] and in [17] were roughly 100 pM, roughly 900 pM and roughly 300 pM, respectively. Besides, in experiment [10], the Kd was 320 pM. For the same molecule, the EC50 is 1060 pM in [11]; 1400 pM in experiment [12]; 1080 pM in [13]; 4580 pM in experiment [14]; 930 pM in [15]; 150 pM in [18]. Moreover, the results for the EC50 in [19], in experiment [20] and in [21] were 225 pM, 1050 pM and 921 pM, respectively. Besides, the koff in [22] was 7.85e-05 s⁻¹. In addition, in experiment [22], the kon amounted to 245000 M⁻¹ s⁻¹.

B2: polatuzumab (antibody, V domains shown)
VH: EVQLVESGGGLVQPGGSLRLSCAASGYTFSSYWIEWVRQAPGKGLEWIGEILPGGGDTNYNEIFKGRATFSADTSKNTAYLQMNSLRAEDTAVYYCTRRVPIRLDYWGQGTLVTVSS
VL: DIQLTQSPSSLSASVGDRVTITCKASQSVDYEGDSFLNWYQQKPGKAPKLLIYAASNLESGVPSRFSGSGSGTDFTLTISSLQPEDFATYYCQQSNEDPLTFGQGTKVEIKR
As for B2, in [7], the IC50 turned out to be 190 pM. Moreover, the EC50 in [11] was determined as 1260 pM; in [12] it was 1780 pM; in experiment [13] it was 2240 pM; in [14], 7850 pM; in experiment [15] it was 1440 pM; in experiment [18] it was 154 pM. Further, the EC50 in experiment [19] worked out at 238 pM; in experiment [20], 1560 pM; in [21] it was 1980 pM. Moreover, in [16], the “EC50 (read off the curve)” value is roughly 900 pM. In addition, in experiment [23], the Kd came out at 417 pM.
